The DeepSol protein solubility set

Experiment: soluble on expression in E. coli; label from the status in PepcDB or PDB records

Sequence | soluble on expression in E. coli
MITYYVRQLKTFSIMSLTLSNVILHKLVKNEQDELEVCLRNQTLENEEFTEALVSELHRVFNSKAGKGFGVFKTESEFGHWLSSVRKNETPFLEFSNNSAEKLKSELIKYPFAEEGILVIAEYQSLATEYLFVAVLPSNESMKVTEQLDISATDYLDIAKMDIAARIDLSTWETDSDSNRYLTFIKGRVGRKVSDFFLDFLQADVGMDTKVQNQVLMQAVEDFCADERLDQEEKQPYRKQVYDYCNGQLQAGEELTVKELASELPTSESGSNFYQFAEEQGYELEESFPVDRTALRKLTKFVGAGGGLSLNFDAMLLGERVFYDPETDTLTIKGTPPNLKDQLEHHHHHH | not soluble
MGSDKIHHHHHHMILKRISILNYKNLEQVEIGFSAKLNCFFGQNGMGKTNLLDAVYFLSFCKSSGNPIDSQNIRHEQDFFVIQGFYEAEDGTPEEIYCGMKRRSKKQFKRNKKEYSRFSDHIGFLPLVMVSPADSELIAGGSDERRRFMDVVISQYDKEYLEALIRYNKALAQRNTLLKSEFPVEEELFLVWEEMMAQAGEIVFRKREAFIEEFIPIFQSFYSFISQDKEQVGLSYDSHARDASLLEVLKQSRERDKIMGFSLRGIHKDELNMLLGDFPIKKEGSQGQNKTYLVALKLAQFDFLKRTGQTVPLLLLDDIFDKLDASRVEQIVKLVAGDNFGQIFITDTNREHLDRILQKVGSDYKVFRVDQGVINEMGAEQ | not soluble
MSLLNPVLLPPKVKAYLSQGERFIKWDDETTVASPVILRVDPKGYYLYWTYQSKEMEFLDITSIRDTRFGKFAKMPKSQKLRDVFNMDFPDNSFLLKTLTVVSGPDMVDLTFHNFVSYKENVGKAWAEDVLALVKHPLTANASRSTFLDKILVKLKMQLNSEGKIPVKNFFQMFPADRKRVEAALSACHLPKGKNDAINPEDFPEPVYKSFLMSLCPRPEIDEIFTSYHAKAKPYMTKEHLTKFINQKQRDSRLNSLLFPPARPDQVQGLIDKYEPSGINAQRGQLSPEGMVWFLCGPENSVLAQDKLLLHHDMTQPLNHYFINSSHNTYLTAGQFSGLSSAEMYRQVLLSGCRCVELDCWKGKPPDEEPIITHGFTMTTDIFFKEAIEAIAESAFKTSPYPIILSFENHVDSPRQQAKMAEYCRTIFGDMLLTEPLEKFPLKPGVPLPSPEDLRGKILIKNKKNQFSGPTSSSKDTGGEAEGSSPPSAPAVWAGEEGTELEEEEVEEEEEEESGNLDEEEIKKMQSDEGTAGLEVTAYEEMSSLVNYIQPTKFVSFEFSAQKNRSYVISSFTELKAYDLLSKASVQFVDYNKRQMSRIYPKGTRMDSSNYMPQMFWNAGCQMVALNFQTMDLPMQQNMAVFEFNGQSGYLLKHEFMRRPDKQFNPFSVDRIDVVVATTLSITVISGQFLSERSVRTYVEVELFGLPGDPKRRYRTKLSPSTNSINPVWKEEPFVFEKILMPELASLRVAVMEEGNKFLGHRIIPINALNSGYHHLCLHSESNMPLTMPALFIFLEMKD | soluble
KQGPTSVAYVEVNNNSMLNVGKYTLADGGGNAFDVAVIFAANINYDTGTKTAYLHFNENVQRVLDNAVTQIRPLQQQGIKVLLSVLGNHQGAGFANFPSQQAASAFAKQLSDAVAKYGLDGVDFNDEYAEYGNNGTAQPNDSSFVHLVTALRANMPDKIISLYNIGPAASRLSYGGVDVSDKFDYAWNPYYGTWQVPGIALPKAQLSPAAVEIGRTSRSTVADLARRTVDEGYGVYLTYNLDGGDRTADVSAFTRELYGSEAVRT | soluble
MLEEYEKKRDFNKTSEPPARGEEKNSDKPVFVVQRHDATNLHYDFRLEMDGVLKSWAVPKEPPKSPGTRRLAIETEDHPLGYADFEGEIPEGQYGAGRVEIWDRGTFELLKRNEKEIIITLHGEELEGDYVLIKTKYGKEDKGWLFFKKKTGLEHHHHHH | soluble
MTQFNGKKIQEKIVSYCIDEVELDLITASDIAFHMTDWLNNLEDLVAFYKTPDEYSPEQLNNILMGFLYHVPNHTIAAAKLLLDVQVTDVFGVGVIADNKDE | not soluble
MGSDKIHHHHHHMKQLVELERSSLGPQEAPVRLALSPDAGSPRDPQWQGPSGGFAINGKFASQRITGVQRVGYELAVAFQHLFPHGTDLPLLVPPNARTDVVFPNAKVIGRRLKGSLWEQFSLPFATGRRTLLSLCNMGPLFVRRQVVMVHDVAIYDLPQNYSWKYRLWYRVALSLLKRNVRHIVTVSEFSKKRIVERLGIDASRISVVLNGVDHFEKISPDTAILSRLNLQKDGYVLAVGNLSVGKNLPRILTAVERLNDSHDWKFVVVGGCDLRVFNSGAKVGFDLSKNIVPAGFVSDGELRALYENAACFLFPSLYEGFGLPPLEAMSCGCPVIVSREASLPEVCGDAALYCDAYSVDDIVDKVTQMMADPAARETWRQRGREHARGFRWERSARQLLGILERELAGEVAPPVHAQSAQSDQSAPSRV | not soluble
VPGPEYKVAILTVSDTVSAGAGPDRSGPRAVSVVDSSSEKLGGAKVVATAVVPDEVERIKDILQKWSDVDEMDLILTLGGTGFTPRDVTPEATKKVIERETPGLLFVMMQESLKITPFAMLARSAAGIRGSTLIINMPGNPNAVAECMEALLPALKHALKQIKGDKR | soluble
MAGEGQIRLTDSCVQRLLEITEGSEFLRLQVEGGGCSGFQYKFSLDTVINPDDRVFEQGGARVVVDSDSLAFVKGAQVDFSQELIRSSFQVLNNPQAQQGCSCGSSFSIKL | soluble
MRITASLRTFCHLSTPHSDSTTSRLWIDEVTAVARQRDRDSFMRIYDHFAPRLLRYLTGLNVPEGQAEELVQEVLLKLWHKAESFDPSKASLGTWLFRIARNLYIDSVRKDRGWVQVQNSLEQLERLEAPVDRTLDYSQRQEQQLNSAIQNLPTDQAKVLRMSYFEALSHREISERLDMPLGTVKSCLRLAFQKLRSRIEES | not soluble
MIFERIKSEGLAHLSYFVGSGNEAIVIDPRRDCQIYFDIARREGMKIKYIFETHRNEDYVIGSLELKELTDAEIYHGKGVDFKYGIFVSDGQEFNFGSMKLTALHTPGHTDESMSYALTYPESGKAPLMVFTGDALFVGDVGRTDLYGPEEIPRMAANLYESIFNKILPLGDGVILCPAHGAGSLCGGAISKREYSTLGLERIQNPALQRTDKEEFIKFKLEEKLEFPPYFKKMEQYNLQGPPLLKGLPVPELLFPKEFVKEMEKGAMVVDTRMPHSFGGAHIKGSYGIWLKGLPYYAGWVLPYDKPILLVLEEKDQLETAVSYLVRIGYDSIAGFLNGGISSWYMKALPVESLNLISVQSLKDKIEKNEEMVILDVRRDEEWEKGHIEGARHVYVGHLEENLDKVPRNSPIIVYCDSSRRSNIAASILKKKGYDMVYNVLGSMTAWKNAGYKVVKLEHHHHHH | soluble
MSLKPKRILLVNEQRSFQVMMKAMLINIGISRITYANSAEEARRRCQKETFDIYLLDYELGVGENGRQLLESLRDQKLIPPQSVVIMVSGDSSRAMVLSALEAEPDEYLMKPFSQEQFSFRLKRALARRQALESVFSALAKEDLPTLLAACAERADAVPRFANFCRCLQADTQLKLGQAKEARSLMRQLLAGQENSWARLTLGKACHTLGLNEEAVSHLQATLKNTPLMVEAHLWLAESQLALGNDEQAQQELKRAVDISPQSVQLSRRLAEVCLLRHDYAQAKDVLLSLIDLSRNSIHRTPHYLGAYIQSLTLYALNSNDIYHIANLQKQVNSALSRIRDSLMMSEFNYPVFEQICQARVQIALGELLKGKKMLYRANQNWLDQPATMPPSLLGETILALYQLGEFEYAESLQALLAEDEDRLLTTCIQATRDDKTVLERRQRYQQLNELGIKAYQSGELEQALGHFREALRRAPANTGAALNKIQVLLQLMQKNRKSPEFGAECKETLEVLDGIPLNPAQQDRFRKLRQEFTQLSEGHHHHHH | soluble
MKCIESLGKTVDEAVKKALSELKVTEDKVEIKVIDEGSKGLLNIIGKREAKVKVTLKTDYIDEVRTFLRKVFEDMNLVIEIKIKEIGNDLFVNLFGKNIGLLIGYRGETLDSLQYLVNLVANKNHADGKYKRVILDTENYRAKREETLKRLALKISKRVKEEKSPFKLEPMNPYERRVIHSALQNDKYVRTYSEGEEPHRRVVVELKKS | not soluble
MTARDFLEFRERLAPASGFQSAQLREIEILLGLEDTQRISIGNGCSYRDALKLPGGAPSSSAQRVEARAADGPSFKHCLYDWLSRVPIDGSNAPADITRFLEAYLASLRAENDRRLKLASSGLAAAEIEQLRARYAAEDAGAQAFLLAEDDPQASDAERETRRAGRAAMLFIESYRELPQLAWPHALLESVLELEQAMLIWRQRHARMVERFIGRRIGTGGSSGVDYLDQTARYRIFTELWTVRSLLLRKAAVPQIRSSAGYGFVMEGFALEHHHHHH | not soluble
MIVTKDYSKESRVNENSKYGTLISDWYLKGRLTSLESQFINALDILETYHYGEKEYKDAKDKLMTRILGEDQYLLERKKVQYEEYKKLYQKYKEENPTSKLKLKTFDQYTIEDLTMREYNELTESLKSAVKDFEKDVEKIENQHHDLKPFTDEMEEKATSRVDDLANKAYSVYFAFVRDTQHKTEALELKAKVDLVLGDEDKPHRISNERIEKEMIKDLESIIEDFFIETGLNKPGNITSYDSSKHHYKNHSEGFEALVKETREAVANADESWKTKTVKKYGESETKSPVVKEENKVEDPQSPKFDNQQEVKTTAGKAEETTQPVAQPL | soluble
MLIEERLAKIQKIVNEQKSISMEALAEQVSVSKDTIRRDLIRLEKEGHLKRTHGGAISVQSEATIYDYAQRIVKHPEKKQAIAQKVWANIPKQASIFFDSSTTVEAAIRAMENSPIHAITNSLSHALLLAQMDQTKITVLPGQLHKQQLFLFGAETVAKVGEFAPDYTLLGVFALSEQGLFIHTEEEGQVKRRMIQQGKQVIALADQTKLNKTGLFKICELTEIDCLVTDTRPDEKFCEQLAQAGVTLIVADELEHHHHHH | soluble
MGQVSAASTILINAEPTATLDALADYETVRPKILSPHYSEYQVLEGGKGRGTVAKWRLQATQSRVRDVQVNVDVAGHTVIEKDMNSSMVTNWTVAPAGPGSSVTVKTTWTGAGGVKGFFEKTFAPLGLKKIQAEVLSNLKTELEGDA | soluble
PKYTLHYFPLMGRAELCRFVLAAHGEEFTDRVVEMADWPNLKATMYSNAMPVLDIDGTKMSQSMCIARHLAREFGLDGKTSLEKYRVDEITETLQDIFNDVVKIKFAPEAAKEAVQQNYEKSCKRLAPFLEGLLVSNGGGDGFFVGNSMTLADLHCYVALEVPLKHTPELLKDCPKIVALRKRVAECPKIAAYLKKRPVRDF | soluble
MSGKLTVITGPMYSGKTTELLSFVEIYKLGKKKVAVFKPKIDSRYHSTMIVSHSGNGVEAHVIERPEEMRKYIEEDTRGVFIDEVQFFNPSLFEVVKDLLDRGIDVFCAGLDLTHKQNPFETTALLLSLADTVIKKKAVCHRCGEYNATLTLKVAGGEEEIDVGGQEKYIAVCRDCYNTLKKRV | soluble
SAAGVPCALVTSCSSVFSGDQLVQHILGTEDLIVEVTSNDAVRFYPWTIDNKYYSADINLCVVPNKFLVTAEIAESVQAFVVYFDSTQKSGLDSVSSWLPLAKAWLPEVMILVCDRVSEDGINRQKAQEWCIKHGFELVELSPEELPEEDDDFPESTGVKRIVQALNANVWSNVVMKNDRNQGFSLLNSLTGTNHSIGSADPCHPEQPHLPAADSTESLSDHRGGASNTTDAQVDSIVDPMLDLDIQELASLTTGGGDVENFERLFSKLKEMKDKAATLPHEQRKVHAEKVAKAFWMAIGGDRDEIEGLSSDEEH | soluble
MVLRDKMILLDENTKAIVQGITGRQGSFHTKKMLECGTKIVGGVTPGKGGQNVHGVPVFDTVKEAVKETDANASVIFVPAPFAKDAVFEAIDAGIELIVVITEHIPVHDTMEFVNYAEDVGVKIIGPNTPGIASPKVGKLGIIPMEVLKEGSVGMVSRSGTLTYEIAHQIKKAGFGVSTCVGIGGDPIVGLRYKEVLDLFEKDDETEAIVMIGEIGGGAEEEAAKFIEKMKKPVIGYIAGQSAPEGKRMGHAGAIVEKGKGTAESKMKALEEAGAYVAKNISDIPKLLAGILGK | soluble
